Reference: patent US20140212406A1 (INSTITUT NATIONAL DE LA SANTE ET DE LA RECHERCHE MEDICALE …, published 2014)
Changes are numbered by the printed parent chain. Names and notes keep the numbering of the source.

B1: human tPA containing the triple mutation P125R W253R R275S, 6xHis tag and linker at the N-terminus (enzyme)
chain: HHHHHHGSSYQVICRDEKTQMIYQQHQSWLRPVLRSNRVEYCWCNSGRAQCHSVPVKSCSEPRCFNGGTCQQALYFSDFVCQCPEGFAGKCCEIDTRATCYEDQGISYRGTWSTAESGAECTNWNSSALAQKRYSGRRPDAIRLGLGNHNYCRNPDRDSKPWCYVFKAGKYSSEFCSTPACSEGNSDCYFGNGSAYRGTHSLTESGASCLPWNSMILIGKVYTAQNPSAQALGLGKHNYCRNPDGDAKPWCHVLKNRRLTREYCDVPSCSTCGLRQYSQPQFSIKGGLFADIASHPWQAAIFAKHRRSPGERFLCGGILISSCWILSAAHCFQERFPPHHLTVILGRTYRVVPGEEEQKFEVEKYIVHKEFDDDTYDNDIALLQLKSDSSRCAQESSVVRTVCLPPADLQLPDWTECELSGYGKHEALSPFYSERLKEAHVRLYPSSRCTSQHLLNRTVTDNMLCAGDTRSGGPQANLHDACQGDSGGPLVCLNDGRMTLVGIISWGLGCGQKDVPGVYTKVTNYLDWIRDNMRP
B2: human tPA containing a tryptophan to arginine point mutation at position 253 (W253R), 6xHis tag and linker at the N-terminus (enzyme)
chain: B1 chain with R133P, S283R
B3: human tPA containing the double mutation W253R R275S, 6xHis tag and linker at the N-terminus (enzyme)
chain: B1 chain with R133P
B4: human single-chain tPA with arginine to serine point mutation at position 275 (R275S), 6xHis tag and linker at the N-terminus (enzyme)
chain: B1 chain with R133P, R261W
B5: fibrin (other)
chain 1: GPRVVERHQSACKDSDWPFCSDEDWNYKCPSGCRMKGLIDEVNQDFTNRINKLKNSLFEYQKNNKDSHSLTTNIMEILRGDFSSANNRDNTYNRVSEDLRSRIEVLKRKVIEKVQHIQLLQKNVRAQLVDMKRLEVDIDIKIRSCRGSCSRALAREVDLKDYEDQQKQLEQVIAKDLLPSRDRQHLPLIKMKPVPDLVPGNFKSQLQKVPPEWKALTDMPQMRMELERPGGNEITRGGSTSYGTGSETESPRNPSSAGSWNSGSSGPGSTGNRNPGSSGTGGTATWKPGSSGPGSTGSWNSGSSGTGSTGNQNPGSPRPGSTGTWNPGSSERGSAGHWTSESSVSGSTGQWHSESGSFRPDSPGSGNARPNNPDWGTFEEVSGNVSPGTRREYHTEKLVTSKGDKELRTGKEKVTSGSTTTTRRSCSKTVTKTVIGPDGHKEVTKEVVTSEDGSDCPEAMDLGTLSGIGTLDGFRHRHPDEAAFFDTASTGKTFPGFFSPMLGEFVSETESRGSESGIFTNTKESSSHHPGIAEFPSRGKSSSYSKQFTSSTSYNRGDSTFESKSYKMADEAGSEADHEGTHSTKRGHAKSRPV
chain 2: GHRPLDKKREEAPSLRPAPPPISGGGYRARPAKAAATQKKVERKAPDAGGCLHADPDLGVLCPTGCQLQEALLQQERPIRNSVDELNNNVEAVSQTSSSSFQYMYLLKDLWQKRQKQVKDNENVVNEYSSELEKHQLYIDETVNSNIPTNLRVLRSILENLRSKIQKLESDVSAQMEYCRTPCTVSCNIPVVSGKECEEIIRKGGETSEMYLIQPDSSVKPYRVYCDMNTENGGWTVIQNRQDGSVDFGRKWDPYKQGFGNVATNTDGKNYCGLPGEYWLGNDKISQLTRMGPTELLIEMEDWKGDKVKAHYGGFTVQNEANKYQISVNKYRGTAGNALMDGASQLMGENRTMTIHNGMFFSTYDRDNDGWLTSDPRKQCSKEDGGGWWYNRCHAANPNGRYYWGGQYTWDMAKHGTDDGVVWMNWKGSWYSMRKMSMKIRPFFPQQ
chain 3: YVATRDNCCILDERFGSYCPTTCGIADFLSTYQTKVDKDLQSLEDILHQVENKTSEVKQLIKAIQLTYNPDESSKPNMIDAATLKSRKMLEEIMKYEASILTHDSSIRYLQEIYNSNNQKIVNLKEKVAQLEAQCQEPCKDTVQIHDITGKDCQDIANKGAKQSGLYFIKPLKANQQFLVYCEIDGSGNGWTVFQKRLDGSVDFKKNWIQYKEGFGHLSPTGTTEFWLGNEKIHLISTQSAIPYALRVELEDWNGRTSTADYAMFKVGPEADKYRLTYAYFAGGDAGDAFDGFDFGDDPSDKFFTSHNGMQFSTWDNDNDKFEGNCAEQDGSGWWMNKCHAGHLNGVYYQGGTYSKASTPNGYDNGIIWATWKTRWYSMKKTTMKIIPFNRLTIGEGQQHHLGGAKQVRPE
B6: rat single-chain tPA with arginine to serine point mutation at position 276 (R276S), 6xHis-tagged (enzyme)
chain: HHHHHHSYRATCRDEQTQTTYQQHQSWLRPMLRGNRVEYCRCNSGLAQCHSVPVRSCSEPRCFNGGTCQQALYFSDFVCQCPDGFVGKRCDIDTRATCFEGQGITYRGTWSTAENGAECINWNSSALSQKPYSARRPNAIKLGLGNHNYCRNPDRDVRPWCYVFKAGKYTTEFCSTPACPKGPTEDCYVGKGVTYRGTHSFTTSKASCLPWNSMILIGKTYTAWRANSQALGLGRHNYCRNPDGDAKPWCHVMKDRKLTWEYCDMSPCSTCGLRQYKQPLFSIKGGLFTDITSHPWQAAIFVKNKRSPGERFLCGGVLISSCWVLSAAHCFVERFPPHHLKVVLGRTYRVVPGEEEQTFEIEKYIVHKEFDDDTYDNDIALLQLRSDSSQCAQESSSVGTACLPDPDVQLPDWTECELSGYGKHEASSPFFSDRLKEAHVRLYPSSRCTSQHLFNKTITSNMLCAGDTRTGGNQDVHDACQGDSGGPLVCMIDKRMTLLGIISWGLGCGQKDVPGIYTKVTNYLNWIQDNMKQ
notes: Present only in its single-chain form; also called sc*-tPA; rat sc*-tPA
B7: rat tPA with tryptophan to arginine point mutation at position 254 (W254R), 6xHis-tagged (enzyme)
chain: B6 chain with W260R, S282R
notes: also called K2*-tPA; tPA W254R

Legend:
[1] = biological target: N-methyl-D-aspartate receptor on primary cultured mouse cortical neurons (mouse, UniProt P35438 19-938); assay: cell-based or functional assay
[2] = biological target: T1, rat wild type tPA (Rattus norvegicus), 6xHis-tagged (rat, UniProt P19637 33-559); assay: binding of tPA variants to a solid-phase fibrin surface on PVC plates (3 independent experiments, 12 doses)
T1 construct: mature; Produced in HEK-293 cells and purified on Ni-NTA; also called wt-tPA; rat wt-tPA

fibrin = biological target: B5; assay: as above

## B1
[1]
  neuronal cell death (LDH release, cortical neurons, 0.3 uM): 51%

## B2
[1]
  neuronal cell death (LDH release, cortical neurons, 0.3 uM): 64%

## B3
[1]
  neuronal cell death (LDH release, cortical neurons, 0.3 uM): 62%

## B4
[1]
  neuronal cell death (LDH release, cortical neurons, 0.3 uM): 62%

## B5
[2]
  Kd: 0.26 nM

## B6
fibrin
  Kd: 1.2 nM

## B7
fibrin
  Kd: 0.5 nM
